According to US20200109188A1 (AstraZeneca / MedImmune, published 2020):

Key:
Assay in all cases: cell-based or functional assay
[1] = biological target: HA of ca A/Texas/36/91 (H1N1) virus (influenza A virus)
[2] = biological target: HA of ca A/Perth/16/09 (H3N2) virus (influenza A virus)
[3] = biological target: HA of ca A/Sydney/5/97 (H3N2) virus (influenza A virus)
[4] = biological target: HA of A/Wyoming/03/03 (H3N2) virus (influenza A virus)
[5] = biological target: HA of ca A/Netherlands/219/03 (H7N7) virus (influenza A virus)
[6] = biological target: HA of ca A/swine/Missouri/06 (H2N3) virus (influenza A virus)
[7] = biological target: HA of ca A/Panama/2007/99 (H3N2) virus (influenza A virus)
[8] = biological target: HA of ca A/Brit. Columbia/CN-6/04 (H7N3-LP) virus (influenza A virus)
[9] = biological target: HA of A/Wisconsin/67/05 (H3N2) virus (influenza A virus)
[10] = biological target: HA of ca A/New Caledonia/20/99 (H1N1) virus (influenza A virus)
[11] = biological target: HA of A/Hong Kong/8/68 (H3N2) virus (influenza A virus)
[12] = biological target: HA of A/Kawasaki/9/86 (H1N1) virus (influenza A virus)
[13] = biological target: HA of A/Fort Monmouth/1/47 (H1N1) virus (influenza A virus)
[14] = biological target: HA of ca A/Vietnam/1203/04 (H5N1) virus (influenza A virus)
[15] = biological target: HA of A/Victoria/3/75 (H3N2) virus (influenza A virus, UniProt P03435 17-567)
Chain of HA of A/Victoria/3/75 (H3N2) virus (P03435 17-567 limits assumed): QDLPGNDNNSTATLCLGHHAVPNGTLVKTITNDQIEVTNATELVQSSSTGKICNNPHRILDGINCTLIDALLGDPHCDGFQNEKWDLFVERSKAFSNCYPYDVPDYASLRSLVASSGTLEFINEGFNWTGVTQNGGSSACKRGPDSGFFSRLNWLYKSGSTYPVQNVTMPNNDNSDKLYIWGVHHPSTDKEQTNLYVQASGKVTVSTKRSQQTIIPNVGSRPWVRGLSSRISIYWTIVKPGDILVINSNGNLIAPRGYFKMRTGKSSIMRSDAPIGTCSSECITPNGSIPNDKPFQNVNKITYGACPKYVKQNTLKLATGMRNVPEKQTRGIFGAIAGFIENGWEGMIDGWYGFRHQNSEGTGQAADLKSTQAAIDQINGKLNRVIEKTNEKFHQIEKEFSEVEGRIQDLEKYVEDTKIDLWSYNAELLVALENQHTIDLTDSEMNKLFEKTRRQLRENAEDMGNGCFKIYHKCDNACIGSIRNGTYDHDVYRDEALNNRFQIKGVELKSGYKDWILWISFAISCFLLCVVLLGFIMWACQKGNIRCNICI

[16] = biological target: HA of ca A/chicken/Hong Kong/G9/97 (H9N2) virus (influenza A virus)
[17] = biological target: HA of H3-LA87 (A/Los Angeles/7/09 (H3N2)) virus (influenza A virus)
[18] = biological target: HA of ca A/Hong Kong/213/03 (H5N1) virus (influenza A virus)
[19] = biological target: HA of ca A/Beijing/262/95 (H1N1) virus (influenza A virus)
[20] = biological target: HA of A/New Jersey/8/76 (H1N1) virus (influenza A virus)
[21] = biological target: HA of ca A/teal/Hong Kong/W312/97 (H6N1) virus (influenza A virus)

| Binder | Neutralization IC50, H1-TX91 [1] | Neutralization IC50, H3-Perth09 [2] | Neutralization IC50, H3-Syd97 [3] | Neutralization IC50, H3-Wy03 [4] | Neutralization IC50, H7-NLD03 [5] | Neutralization IC50, H2-MO06 [6] | Neutralization IC50, H3-Pa99 [7] | Neutralization IC50, H7-BC04 [8] | Neutralization IC50, H3-Wl05 [9] | Neutralization IC50, H1-Ncal99 [10] | Neutralization IC50, H3-HK68 [11] | Neutralization IC50, H1-Kaw86 [12] | Neutralization IC50, H1-FM47 [13] | Neutralization IC50, H5-VM04 [14] | Neutralization IC50, H3-Vic75 [15] | Neutralization IC50, H9-HK97 [16] | Neutralization IC50, H3-LA87 [17] | Neutralization IC50, H5-HK03 [18] | Neutralization IC50, H1-BJ95 [19] | Neutralization IC50, H1-NJ76 [20] | further results |
| --- | --- | --- | --- | --- | --- | --- | --- | --- | --- | --- | --- | --- | --- | --- | --- | --- | --- | --- | --- | --- | --- |
| Antibody 8 (antibody, V domains shown) VH: QVQLQQSGPGLVKPSQTLSLTCVISGDTVSSNRATWNWMRQSPLRGLEWLGRTYYRSKWYNDYAVSVKSRVVINPDTSKNQVSLQLNTVTPDDSGVYFCARGGHITVFGVNIDAFDIWGLGTKVTVSS VL: DIQMTQSPSSLSASVGDRVTISCRASQRLNSYLHWYQQTPGQAPKLLIYATSTLQSGVSPRFSGSGSGTDFTLTISSLQPEDVATYYCQLSRTFGHGTKVEIK | 0.7 mg/L | > 50 mg/L | > 50 mg/L | > 50 mg/L | 12.8 mg/L | 2.62 mg/L | > 50 mg/L | 14.7 mg/L | > 50 mg/L | 2.06 mg/L | 2.82 mg/L | 2.11 mg/L | 1.37 mg/L | 3.9 mg/L | 3.83 mg/L | 26.4 mg/L | > 50 mg/L | 1.82 mg/L | 10.6 mg/L | 2.26 mg/L | Neutralization IC50, H6-HK97 [21]: 2.97 mg/L |
| Antibody 5 (antibody, V domains shown) VH: QVQLQQSGPGLVKPSQTLSLTCAISGDRVSSNSAVWNWIRQSPSRGLEWLGRTYYRSKWYYDYAESVKSRIVIDPDTSKNQVSLQLNSVTPEDSAIYYCARGGHITVFGLNIDAYDIWGQGAMVTVSS VL: DIQMTQSPSSLSASVGDRVTISCRAQSLSSYLHWYQQKPGQPPKLLIYAATTLQSGVPSRFSGSGSGTDFTLTISTFQAEDVATYYCQQSRTFGQGTKVEIK | 0.76 mg/L | 2.22 mg/L | 3.03 mg/L | 0.77 mg/L | 4.14 mg/L | 2.38 mg/L | 16.7 mg/L | 5.35 mg/L | 2.83 mg/L | 0.85 mg/L | 0.39 mg/L | 1.01 mg/L | 0.86 mg/L | 2.6 mg/L | 0.57 mg/L | 2.43 mg/L | 3.54 mg/L | 1.18 mg/L | 5.06 mg/L | 1.64 mg/L | Neutralization IC50, H6-HK97 [21]: 2.27 mg/L |
| Antibody 6 (antibody, V domains shown) VH: QVQLQQSGPGLVKPSQTLSLTCAISGDRVSSNSAVWNWIRQSPSRGLEWLGRTYYRSKWYYDYAESVKSRIVIDPDTSKNQVSLQLNSVTPEDSAIYYCARGGHITEFGLNIDAYDIWGQGAMVTVSS VL: DIQMTQSPSSLSASVGDRVTISCRAQSLSSYLHWYQQKPGQPPKLLIYAATTLQSGVPSRFSGSGSGTDFTLTISTFQAEDVATYYCQQSRTFGQGTKVEIK | 2.2 mg/L | 5.03 mg/L | 6.54 mg/L | 4.7 mg/L | > 50 mg/L | 2.9 mg/L | 25.8 mg/L | > 50 mg/L | 6.76 mg/L | 3 mg/L | 2.04 mg/L | 3.51 mg/L | 3.04 mg/L | 8.87 mg/L | 1.09 mg/L | 16.5 mg/L | 12.6 mg/L | 10.4 mg/L | 20.9 mg/L | 2.6 mg/L | Neutralization IC50, H6-HK97 [21]: 3.23 mg/L |
| Antibody 10 (antibody, V domains shown) VH: QVQLQQSGPGLVKPSQTLSLTCAISGDSVSSNSATWNWIRQSPSRGLEWLGRTYYRSKWYNDYADFLKRRITINPDTSNNEVSLRLTSVTPDDTALYYCARGGHITVFGVNIDAFDVWGQGTMVTVSS VL: DIQMTQSPSSLSASVGDRITISCRTSQSLRSYLHWYQQKPGKAPKLLIYASSTLQSGVPSRFSGSGSGTDFTLTISNLQPEDFATYYCQLSRTFGQGTKVEIK | 0.48 mg/L | 2.56 mg/L | 9.29 mg/L | 1.52 mg/L | 3.8 mg/L | 1.04 mg/L | 18.7 mg/L | 3.59 mg/L | 4.46 mg/L | 1.26 mg/L | 0.85 mg/L | 1.62 mg/L | 1.11 mg/L | 2.21 mg/L | 0.91 mg/L | 1.76 mg/L | 4.59 mg/L | 1.6 mg/L | 4.46 mg/L | 0.15 mg/L | Neutralization IC50, H6-HK97 [21]: 1.05 mg/L |
